Measured values published in article PMC12595022.

Target: 14-3-3γ (UniProt P61981)
Assay: co-immunoprecipitation, Western blot
Details: reference: full-length wild-type MDMX; sites S367

binding against the reference: lost
Substance: MDMX (from UniProt O15151) MDMX-S367A
